B1: TSPAN10 (parent)
chain: EGCGPPLRRWLRANLAASGGYAIA
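Further: lentivirally expressed fusions sorted by FACS into six bins by GFP to DsRed ratio, PSI derived from sequencing read proportions per bin multiplied by bin number.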

In the series the parent is B1. Description: protein stability index of a GFP-peptide fusion (GPS, HEK-293T) (PSI 1-6); higher = more stable. As to conditions: c terminus: a fixed tail appended.
For the variant EGCGPPLRRWLRANLAKSGGYAIA [A17K], the protein stability index was found to be 1.7.

EGCGPPLRRWLRANLAPSGGYAIA [A17P]: the protein stability index stood at 1.81.

Take EGCGPPLRRWLRANLANSGGYAIA [A17N]: the protein stability index stood at 2.96.

EGCGPPLRRWLRANLALSGGYAIA [A17L]: the protein stability index worked out at 1.63.

As for EGCGPPLRRWLRANLAHSGGYAIA [A17H], the protein stability index came out at 2.

On to EGCGPPLRRWLRANLAYSGGYAIA [A17Y], for which the protein stability index is 1.97.

Consider EGCGPPLRRWLRANLAISGGYAIA [A17I], for which the protein stability index came to 2.67.

With EGCGPPLRRWLRANLACSGGYAIA [A17C], the protein stability index is 1.39.

EGCGPPLRRWLRANLAGSGGYAIA [A17G]: the protein stability index turned out to be 1.59.

Take EGCGPPLRRWLRANLAFSGGYAIA [A17F]: the protein stability index was 1.35.

As for EGCGPPLRRWLRANLAESGGYAIA [A17E], the protein stability index stood at 2.63.

Take EGCGPPLRRWLRANLAMSGGYAIA [A17M]: the protein stability index is 2.2.

With EGCGPPLRRWLRANLAWSGGYAIA [A17W], the protein stability index was determined as 2.03.

Turning to EGCGPPLRRWLRANLASSGGYAIA [A17S], the protein stability index was 1.84.

Consider EGCGPPLRRWLRANLAVSGGYAIA [A17V], for which the protein stability index stood at 1.4.

With EGCGPPLRRWLRANLATSGGYAIA [A17T], the protein stability index was determined as 1.4.

Consider EGCGPPLRRWLRANLARSGGYAIA [A17R], for which the protein stability index stood at 1.44.

As to EGCGPPLRRWLRANLADSGGYAIA [A17D], the protein stability index was 2.71.

On to EGCGPPLRRWLRANLAQSGGYAIA [A17Q], for which the protein stability index worked out at 2.79.

As to EGCGPPLRRWLRAQLAASGGYAIA [N14Q], the protein stability index came out at 1.39.

In the case of EGCGPPLRRWLRASLAASGGYAIA [N14S], the protein stability index worked out at 1.93.

Consider EGCGPPLRRWLRAELAASGGYAIA [N14E], for which the protein stability index amounted to 1.47.

Turning to EGCGPPLRRWLRAYLAASGGYAIA [N14Y], the protein stability index is 1.46.

As for EGCGPPLRRWLRAALAASGGYAIA [N14A], the protein stability index was 2.3.

As to EGCGPPLRRWLRAWLAASGGYAIA [N14W], the protein stability index was 1.83.

On to EGCGPPLRRWLRATLAASGGYAIA [N14T], for which the protein stability index is 1.86.

On to EGCGPPLRRWLRAPLAASGGYAIA [N14P], for which the protein stability index came out at 2.06.

As to EGCGPPLRRWLRARLAASGGYAIA [N14R], the protein stability index came out at 1.74.

For EGCGPPLRRWLRAMLAASGGYAIA [N14M], the protein stability index stood at 2.08.

Consider EGCGPPLRRWLRAKLAASGGYAIA [N14K], for which the protein stability index is 2.81.

As to EGCGPPLRRWLRAFLAASGGYAIA [N14F], the protein stability index was found to be 1.92.

As to EGCGPPLRRWLRAHLAASGGYAIA [N14H], the protein stability index was found to be 2.48.

For the variant EGCGPPLRRWLRADLAASGGYAIA [N14D], the protein stability index is 1.86.

Turning to EGCGPPLRRWLRALLAASGGYAIA [N14L], the protein stability index amounted to 1.02.

For the variant EGCGPPLRRWLRAILAASGGYAIA [N14I], the protein stability index was found to be 1.05.

Consider EGCGPPLRRWLRAGLAASGGYAIA [N14G], for which the protein stability index is 2.24.

As for EGCGPPLRRWLRANYAASGGYAIA [L15Y], the protein stability index was found to be 1.92.

As for EGCGPPLRRWLRANKAASGGYAIA [L15K], the protein stability index was found to be 2.53.

Turning to EGCGPPLRRWLRANMAASGGYAIA [L15M], the protein stability index turned out to be 2.16.

For the variant EGCGPPLRRWLRANGAASGGYAIA [L15G], the protein stability index stood at 2.59.

With EGCGPPLRRWLRANAAASGGYAIA [L15A], the protein stability index amounted to 2.36.

As for EGCGPPLRRWLRANNAASGGYAIA [L15N], the protein stability index came to 2.28.

As for EGCGPPLRRWLRANTAASGGYAIA [L15T], the protein stability index was 1.95.

EGCGPPLRRWLRANRAASGGYAIA [L15R]: the protein stability index is 3.06.

For the variant EGCGPPLRRWLRANFAASGGYAIA [L15F], the protein stability index was found to be 1.58.

For the variant EGCGPPLRRWLRANQAASGGYAIA [L15Q], the protein stability index worked out at 3.2.

For the variant EGCGPPLRRWLRANEAASGGYAIA [L15E], the protein stability index stood at 2.96.

Take EGCGPPLRRWLRANCAASGGYAIA [L15C]: the protein stability index was 1.49.

Turning to EGCGPPLRRWLRANHAASGGYAIA [L15H], the protein stability index was 2.62.

Turning to EGCGPPLRRWLRANDAASGGYAIA [L15D], the protein stability index was 2.81.

Take EGCGPPLRRWLRANVAASGGYAIA [L15V]: the protein stability index was 2.07.

On to EGCGPPLRRWLRANSAASGGYAIA [L15S], for which the protein stability index was 2.94.

On to EGCGPPLRRWLRANIAASGGYAIA [L15I], for which the protein stability index came out at 1.93.

For the variant EGCGPPLRRWLRANPAASGGYAIA [L15P], the protein stability index amounted to 2.14.

On to EGCGPPLRRWLRKNLAASGGYAIA [A13K], for which the protein stability index was determined as 2.95.

With EGCGPPLRRWLRWNLAASGGYAIA [A13W], the protein stability index was 2.03.

Take EGCGPPLRRWLRRNLAASGGYAIA [A13R]: the protein stability index is 1.62.

Regarding EGCGPPLRRWLRNNLAASGGYAIA [A13N], the protein stability index came out at 2.19.

With EGCGPPLRRWLRPNLAASGGYAIA [A13P], the protein stability index came to 2.87.

With EGCGPPLRRWLRMNLAASGGYAIA [A13M], the protein stability index came to 1.4.

In the case of EGCGPPLRRWLRYNLAASGGYAIA [A13Y], the protein stability index was found to be 1.66.

As to EGCGPPLRRWLRLNLAASGGYAIA [A13L], the protein stability index was determined as 2.21.

In the case of EGCGPPLRRWLRSNLAASGGYAIA [A13S], the protein stability index is 2.58.

Regarding EGCGPPLRRWLRTNLAASGGYAIA [A13T], the protein stability index was found to be 2.25.

As to EGCGPPLRRWLRQNLAASGGYAIA [A13Q], the protein stability index is 2.83.

With EGCGPPLRRWLRVNLAASGGYAIA [A13V], the protein stability index worked out at 1.75.

With EGCGPPLRRWLRANLAAGGGYAIA [S18G], the protein stability index worked out at 1.98.

On to EGCGPPLRRWLRANLAAIGGYAIA [S18I], for which the protein stability index worked out at 1.44.

For the variant EGCGPPLRRWLRANLAACGGYAIA [S18C], the protein stability index turned out to be 2.15.

For the variant EGCGPPLRRWLRANLAALGGYAIA [S18L], the protein stability index turned out to be 2.19.

As for EGCGPPLRRWLRANLAAFGGYAIA [S18F], the protein stability index came out at 2.57.

As for EGCGPPLRRWLRANLAAHGGYAIA [S18H], the protein stability index was 1.87.

Consider EGCGPPLRRWLRANLAADGGYAIA [S18D], for which the protein stability index worked out at 2.71.

As to EGCGPPLRRWLRANLAAEGGYAIA [S18E], the protein stability index turned out to be 1.75.

Turning to EGCGPPLRRWLRANLAAKGGYAIA [S18K], the protein stability index stood at 1.61.

Regarding EGCGPPLRRWLRANLAAAGGYAIA [S18A], the protein stability index was found to be 1.97.

Consider EGCGPPLRRWLRANLDASGGYAIA [A16D], for which the protein stability index came to 2.12.

Turning to EGCGPPLRRWLRANLSASGGYAIA [A16S], the protein stability index came out at 1.68.

Turning to EGCGPPLRRWLRANLRASGGYAIA [A16R], the protein stability index came out at 1.68.

EGCGPPLRRWLRANLCASGGYAIA [A16C]: the protein stability index was determined as 1.78.

For EGCGPPLRRWLRANLVASGGYAIA [A16V], the protein stability index came to 1.65.

EGCGPPLRRWLRANLPASGGYAIA [A16P]: the protein stability index amounted to 1.78.

EGCGPPLRRWLRANLNASGGYAIA [A16N]: the protein stability index amounted to 2.5.

Consider EGCGPPLRRWLRANLYASGGYAIA [A16Y], for which the protein stability index stood at 1.48.

EGCGPPLRRWLRANLEASGGYAIA [A16E]: the protein stability index turned out to be 2.58.

For the variant EGCGPPLRRWLRANLTASGGYAIA [A16T], the protein stability index was 1.63.

In the case of EGCGPPLRRWLRANLLASGGYAIA [A16L], the protein stability index was determined as 1.53.

As for EGCGPPLRRWLRANLGASGGYAIA [A16G], the protein stability index came to 1.71.

For the variant EGCGPPLRRWLRANLWASGGYAIA [A16W], the protein stability index is 1.45.

On to EGCGPPLRRWLRANLQASGGYAIA [A16Q], for which the protein stability index stood at 1.57.

EGCGPPLRRWLRANLKASGGYAIA [A16K]: the protein stability index worked out at 2.31.

Turning to EGCGPPLRRWLRANLMASGGYAIA [A16M], the protein stability index is 2.98.

On to EGCGPPLRRWLRANLHASGGYAIA [A16H], for which the protein stability index is 2.13.

With EGCGPPLRRWLRANLIASGGYAIA [A16I], the protein stability index is 1.96.
